Key:
Assay in all cases: pull-down
His-G5(1–739) Y474A = His-G5(1–739) Y474A (UniProt Q8TEQ6)
His-G5(1–739) wild type = His-G5(1–739) wild type (UniProt Q8TEQ6)
His-G5(1–739) Y15A = His-G5(1–739) Y15A (UniProt Q8TEQ6)
His-G5(1–739) W14A = His-G5(1–739) W14A (UniProt Q8TEQ6)
His-G5(1–739) W14A, sequence (Q8TEQ6 1-739 W14A): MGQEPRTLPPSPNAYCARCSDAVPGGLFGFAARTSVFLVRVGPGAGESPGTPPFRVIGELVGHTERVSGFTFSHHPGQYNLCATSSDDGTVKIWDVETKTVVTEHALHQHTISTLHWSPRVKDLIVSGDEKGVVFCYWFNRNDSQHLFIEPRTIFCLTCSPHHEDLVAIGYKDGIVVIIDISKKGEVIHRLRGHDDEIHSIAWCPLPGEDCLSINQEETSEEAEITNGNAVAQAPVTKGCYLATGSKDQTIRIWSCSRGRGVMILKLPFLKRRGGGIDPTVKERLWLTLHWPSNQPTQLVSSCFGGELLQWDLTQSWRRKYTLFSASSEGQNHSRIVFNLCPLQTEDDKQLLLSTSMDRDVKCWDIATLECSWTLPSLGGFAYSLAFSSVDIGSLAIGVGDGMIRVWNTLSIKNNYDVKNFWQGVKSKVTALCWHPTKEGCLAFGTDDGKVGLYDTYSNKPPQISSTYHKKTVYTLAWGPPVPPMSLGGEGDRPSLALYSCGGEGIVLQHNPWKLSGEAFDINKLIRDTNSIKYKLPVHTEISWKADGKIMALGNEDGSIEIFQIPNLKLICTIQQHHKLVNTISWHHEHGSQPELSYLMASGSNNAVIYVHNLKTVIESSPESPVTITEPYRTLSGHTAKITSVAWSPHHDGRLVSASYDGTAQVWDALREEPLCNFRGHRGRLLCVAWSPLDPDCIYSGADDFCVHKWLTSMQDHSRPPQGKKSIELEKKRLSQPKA

His-G5(1–739) Y474A, sequence (Q8TEQ6 1-739 Y474A): as the sequence (Q8TEQ6 1-739 W14A) above, with A14W, Y474A counted along it
His-G5(1–739) Y15A, sequence (Q8TEQ6 1-739 Y15A): as the sequence (Q8TEQ6 1-739 W14A) above, with A14W, Y15A counted along it
His-G5(1–739) wild type, sequence (Q8TEQ6 1-739): as the sequence (Q8TEQ6 1-739 W14A) above, with A14W counted along it

“80S ribosomes (from UniProt P05388 1-317) (complex)” was tested, and the fold P0 signal over the beads-ribosome background (His-G5(1–739) Y474A) was 3 fold, the fold P0 signal over the control (beads with 80S, no His protein) (His-G5(1–739) wild type) was 38.8 fold and the fold P0 signal over the beads-ribosome background (His-G5(1–739) Y15A) was 14.4 fold. For the same substance, the fold P0 signal over the beads-ribosome background (His-G5(1–739) W14A) was 13.8 fold.

Reference: PMC5041490
